Laboratory results: patent US20220106406A1 (UNIVERSITY OF KENTUCKY RESEARCH FOUNDATION, published 2022)

T1: 3×FLAG-PRL-1 (human, UniProt Q93096 1-170)
T1 construct: Expressed in HEK293T cells, tested in cell lysate; Order of tag and PRL follows the printed name only; also called 3xFLAG-PRL-1; not shown: 3×FLAG tag from p3×FLAG-CMV-14
T1 sequence (looked up): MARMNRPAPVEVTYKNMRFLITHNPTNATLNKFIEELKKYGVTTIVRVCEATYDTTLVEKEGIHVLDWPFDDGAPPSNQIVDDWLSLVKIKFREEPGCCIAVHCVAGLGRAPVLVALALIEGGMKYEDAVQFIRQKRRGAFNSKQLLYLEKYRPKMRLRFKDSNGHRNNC

T2: 3×FLAG-PRL-2 (human, UniProt Q12974 1-164)
T2 construct: Expressed in HEK293T cells, tested in cell lysate; Order of tag and PRL follows the printed name only; also called 3xFLAG-PRL-2; not shown: 3×FLAG tag from p3×FLAG-CMV-14
T2 sequence (looked up): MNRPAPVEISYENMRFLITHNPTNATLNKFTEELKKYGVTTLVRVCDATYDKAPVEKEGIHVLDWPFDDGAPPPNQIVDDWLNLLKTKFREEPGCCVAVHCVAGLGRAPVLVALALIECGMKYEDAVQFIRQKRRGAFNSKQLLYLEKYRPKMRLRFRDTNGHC

T3: GFP-PRL-1 (UniProt Q93096 1-170)
T3 construct: Expressed in HCT116 cells, fixed and permeabilized for immunofluorescence; also called CMV:GFP-PRL-1
T3 sequence (looked up): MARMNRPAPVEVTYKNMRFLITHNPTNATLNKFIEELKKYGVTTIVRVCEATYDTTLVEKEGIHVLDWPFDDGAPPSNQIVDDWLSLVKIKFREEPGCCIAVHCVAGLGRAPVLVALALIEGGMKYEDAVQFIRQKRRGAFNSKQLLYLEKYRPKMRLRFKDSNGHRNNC

T4: GFP-PRL-2 (UniProt Q12974 1-164)
T4 construct: Expressed in HCT116 cells, fixed and permeabilized for immunofluorescence; also called CMV:GFP-PRL-2
T4 sequence (looked up): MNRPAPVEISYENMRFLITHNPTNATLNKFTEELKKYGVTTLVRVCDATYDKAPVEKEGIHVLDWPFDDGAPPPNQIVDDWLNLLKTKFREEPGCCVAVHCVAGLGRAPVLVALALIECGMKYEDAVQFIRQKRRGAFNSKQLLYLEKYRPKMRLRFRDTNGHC


How the values were obtained:
3×FLAG-PRL-1 = target: T1, 3×FLAG-PRL-1; test: immunoprecipitation from HEK293T lysate with nanobody-coupled Dynabeads, anti-FLAG blot
Procedure: (§1) HEK293T cells (˜20 million) were lysed for 30 minutes with intermittent vortexing in Pierce IP lysis buffer (Thermo 87788) supplemented with 1% protease inhibitor cocktail (IP buffer) at 500 μl per 10 million cells and spun at 12,000 rpm for 10 minutes at 4° C. to pellet cell debris. Protein concentration was quantified using the Quick Start Bradford 1× Dye Reagent (Biorad, 5000205). 150 μL of nanobody-coupled beads were washed in 1 mL of PBS for 5 minutes, precipitated, then equilibrated in 500 μL of IP buffer for 5 minutes. 2.5 mg of total extracted protein was added to the balanced nanobody-beads complex for incubation with rocking at 4° C. overnight. After washing the beads-protein complex in cold PBS four times, 50 μL 2× Laemmli Sample Buffer (Biorad, 161-0737) with 2-Mercaptoethanol (Fisher Scientific, 034461-100) was added to the beads, the mixture was boiled at 95° C. for 10 minutes, and the supernatant was collected for western blot analysis.
(§2) PRL-3 substrates remain largely undefined, in part due to insufficient tools for cell-based studies. The current commercially available PRL-3 antibodies have not been extensively validated for specificity towards PRL-3 over other PRLs. To address this, the ability of the anti-PRL-3 nanobodies to identify PRL-3 protein in cell lysate was tested. Anti-PRL-3 nanobodies were coupled to superparamagnetic Dynabeads® M-270 Epoxy beads and used in immunoprecipitation of HEK293T cells expressing either 3×FLAG-PRL-1, -2, or -3. All nanobodies selectively pulled-down 3×FLAG-PRL-3 over PRL-1 and PRL-2, as assessed by anti-FLAG immunoblot (FIGS. 7A and 9A-I). Some nanobodies were more specific to PRL-3 than others; nanobodies 4, 16, 19, and 84 pulled down small amounts of 3×FLAG-PRL-1 and/or PRL-2 (FIG. 3A). Successful nanobody coupling to Dynabeads was confirmed by the presence of 6×-His-tag in all samples (FIG. 3B). […] In total, anti-PRL-3 nanobodies 10, 26, and 91 can be used to specifically immunoprecipitate PRL-3, with no binding to PRL-1 or PRL-2.

3×FLAG-PRL-2 = target: T2, 3×FLAG-PRL-2; test: as above
Procedure: as §1, §2

GFP-PRL-1 = target: T3, GFP-PRL-1; test: immunofluorescence on fixed, permeabilized transfected HCT116 cells
Procedure: (§3) HCT116 colorectal cancer cells were transfected with A—CMV:GFP, CMV:GFP-PRL-1, CMV:GFP-PRL-2, or CMV:GFP-PRL-3 for 24 hours prior to cell fixation and permeabilization. Immunofluorescence assays were completed with 1:1000 1 mg/mL NB91 followed by 1:400 Alexa Fluor® 594-AffiniPure Goat Anti-Alpaca IgG, VHH domain and show nanobodies detect PRL-3 but not PRL-1 or PRL-2.
(§4) Transfected cells were plated at 5,000 cells per well in 96-well black glass bottomed plates (Cellvis, P96-1.5H-N). All solution exchanges and imaging occurred in the 96-well plate. 24 hours post-transfection cells were fixed in 4% paraformaldehyde (VWR, AAJ61899-AK) for 15 minutes, rinsed in PBS, permeabilized for 10 minutes in 1% 100× Triton (Sigma, X100-100), and rinsed in PBS. Blocking solution of 2% BSA in PBS was applied for 1 hour to all wells. All nanobodies were diluted to 1 mg/ml in blocking solution, and further diluted 1:1000 and incubated with the cells for 1 hour at room temperature followed by five PBS washes. Detection was carried out using an anti-alpaca IgG VHH conjugated to Alexa Fluor-594 (Jackson ImmunoResearch, 128-585-232) diluted 1:400 in blocking solution, and counterstained with Hoechst, 1:1000 dilution (ThermoFisher, H3570). All wells were washed in PBS five times prior to imaging. Images were acquired with a Nikon MR confocal using the 40× water objective. […]

GFP-PRL-2 = target: T4, GFP-PRL-2; test: as above
Procedure: as §3, §4

Row | Binder | binding result (3×FLAG-PRL-1) | binding result (3×FLAG-PRL-2) | binding result (GFP-PRL-1) | binding result (GFP-PRL-2)
1 | NB26 (VHH, Alpaca nanobody, C-terminal 6xHis tag intact; also called nanobody 26; Nanobody 26) VHH: QVQLQESGGGLVQPGGSLKLSCVVTGLHYYTEGWFRQAPGKEREGVSCISSSDGRTDYIDSVKGRFTISEDNDNKTVYLQMNTLKPDDTGVYYCVAERGPRGSTWWETYDYWGQGTHVTVSS | no binding | no binding |  | 
2 | NB91 (VHH, Alpaca nanobody expressed from pMES4 in E. coli; also called nanobody 91; Nanobody 91) VHH: QVQLQESGGGLVQTGGSLRLSCAASQSTFNFDVMGWYRLAPGKQREFLTSITNGGNIYYADSVKGRFTIARDDSKTTMYLEMNSLKPEDTAVYTCYGQTHKPRVTTSWGQGTQVTVSS | no binding | no binding | no binding (tested: 1:1000 of 1 mg/mL) | no binding (tested: 1:1000 of 1 mg/mL)
3 | NB10 (VHH, Alpaca nanobody, C-terminal 6xHis tag intact; also called nanobody 10) VHH: QVQLQESGGGLVQTGGSLRLSCAASQSTFNFNVMGWYRLAPGKQREFLPSLTNGGNIYYADSVKGRFTIARDDSKTTTYLEMNSLKPEDTAVYTCYGQTHKPRVTTSWGQGTQVTVSS | no binding | no binding |  | 
